Measurements as given in KR20220022226A (dated 2022).
Where a chain is given by its changes, count along the chain named.

T1: GST 택(tag)이 달린 IL-33 (human, UniProt O95760 112-270)
T1 construct: also called GST-IL-33; 재조합 GST-IL-33; not shown: Glutathione S-transferase (GST) tag; It is N-terminal, since stop codons pla
T1 sequence: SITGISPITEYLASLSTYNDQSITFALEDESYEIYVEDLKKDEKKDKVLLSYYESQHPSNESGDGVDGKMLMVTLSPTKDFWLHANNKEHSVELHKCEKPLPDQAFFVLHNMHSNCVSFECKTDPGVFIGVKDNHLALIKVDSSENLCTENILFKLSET

B1: C2_1D5 (scFv)
scFv: EVQLLESGGGLVQPGGSLRLSCAASGFTFSSYYMSWVRQAPGKGLEWVSAISPGSSNKYYADSVKGRFTISRDNSKNTLYLQMNSLRAEDTAVYYCARLLSAFDYWGQGTLVTVSSGGGGSGGGGSGGGGSQSVLTQPPSASGTPGQRVTISCSGSSSNIGSNDVSWYQQLPGTAPKLLIYSDSNRPSGVPDRFSGSKSGTSASLAISGLRSEDEADYYCGAWDSSLSGYVFGGGTKLTVLGQAGQHHHHHHGAYPYDVPDYAS
notes: scFv clone from a synthetic human scFv phage library; also called Anti-IL-33 scFv C2_1D5
B2: C1_1E1 (scFv)
scFv: B1 scFv with R98K, L100T, G120D, S154T, S166T, S184N, N185K, D214E
notes: scFv clone from a synthetic human scFv phage library; also called Anti-IL-33 scFv C1_1E1
B3: C2_2A10 (scFv)
scFv: EVQLLESGGGLVQPGGSLRLSCAASGFTFSSYYMSWVRQAPGKGLEWVSAISPGSSNKYYADSVKGRFTISRDNSKNTLYLQMNSLGAEDTAVYYCAKLLTGFDYWGQGTLVTVSSGGGGSGGGGSGGGGSQSVLTQPPSASGTPGQRVTISCSGSSSNIGNNAVSWYQQLPGTAPKLLIYDDNHRPSGVPDRFSGSKSGTSASLAISGLRSEDEADYYCGTWDSSLSAYVFGGGTKLTVLGQAGQHHHHHHGAYPYDVPDYAS
notes: scFv clone from a synthetic human scFv phage library; also called Anti-IL-33 scFv C2_2A10
B4: C2_2E1 (scFv)
scFv: B1 scFv with K43R, L99M, L100T, A102S, S162N, N185Q, A222S, S225Y, G229A
notes: scFv clone from a synthetic human scFv phage library; also called Anti-IL-33 scFv C2_2E1
B5: C2_2E12 (scFv)
scFv: EVQLLESGGGLVQPGGSLRLSCAASGFTFSSYYMSWVRQAPGKGLEWVSAISPGSSNKYYADSVKGRFTISRDNSKNTLYLQMNSLRAEDTAVYYCARLTLSFDYWGQGTPVTVSSGGGGSGGGGSGGGGSQSVLTQPPSASGTPGQRVTISCSGSSSNIGSNDVSWYQQLPGTAPKLLIYADSKRPSGVPDRFSGSKSGTSASLAISGLRSEDEADYYCASWDSSLSAYVFGGGTKLTVLG
notes: The recombinant scFv was purified on Ni-NTA agarose and detected with anti-HA-HRP, so the protein tested probably carried His and HA tags; also called Anti-IL-33 scFv C2_2E12; 재조합 C2_2E12 scFv 항체
B6: C2_2H5 (scFv)
scFv: EVQLLESGGGLVQPGGSLRLSCAASGFTFSSYYMSWVRQAPGKGLEWVSAISPGSSNKYYADSVKGQFTISRDNSKNTLYLQMNSLRAEDTAVYYCAKLSQSFDYWGQGTLVTVSSGGGGSGGGGSGGSGSQSVLTQPPSASGTPGQRVTISCTGSSSNIGNNGISWYQQLPGTAPKLLIYDNSHRPSGVPDRFSGSKSGTSASLAISGLRSEDETDYYCASWDSSLSGYVFGGGTKLTVLGQAGQHHHHHHGAYPYDVPDYAS
notes: scFv clone from a synthetic human scFv phage library; also called Anti-IL-33 scFv C2_2H5

Legend:
GST 택(tag)이 달린 IL-33 = target: T1, GST 택(tag)이 달린 IL-33; experiment: ELISA, antigen fixed and scFv titrated
IL-6 = IL-6 (UniProt P05231 30-212); experiment: immunoblot, C2_2E12 as primary antibody, anti-HA-HRP as secondary
BSA = target: T2, BSA (UniProt P02769 25-607); experiment: as above
T2 construct: Unrelated control protein in the immunoblot

IL-1b = IL-1b (UniProt P01584 117-269); experiment: as above

T2 sequence (P02769 25-607 limits assumed): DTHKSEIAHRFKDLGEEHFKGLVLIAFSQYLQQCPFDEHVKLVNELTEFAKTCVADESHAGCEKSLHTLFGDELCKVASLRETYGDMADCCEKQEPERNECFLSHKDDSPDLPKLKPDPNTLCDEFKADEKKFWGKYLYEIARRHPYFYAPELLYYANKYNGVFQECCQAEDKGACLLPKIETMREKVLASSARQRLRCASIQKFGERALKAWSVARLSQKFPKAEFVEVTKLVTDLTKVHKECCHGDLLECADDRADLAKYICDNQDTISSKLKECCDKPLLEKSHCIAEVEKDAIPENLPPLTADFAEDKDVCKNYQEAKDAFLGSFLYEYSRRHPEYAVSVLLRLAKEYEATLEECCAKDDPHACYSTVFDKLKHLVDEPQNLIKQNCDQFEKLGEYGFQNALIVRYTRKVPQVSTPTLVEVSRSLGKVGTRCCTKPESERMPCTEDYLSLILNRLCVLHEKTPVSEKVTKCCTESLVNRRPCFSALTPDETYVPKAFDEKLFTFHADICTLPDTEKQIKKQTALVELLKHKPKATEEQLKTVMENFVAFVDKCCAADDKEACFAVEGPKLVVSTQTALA

Row | Binder | Kd (GST 택(tag)이 달린 IL-33) | binding result (IL-6) | binding result (BSA) | binding result (IL-1b)
1 | B1 | 36 nM |  |  | 
2 | B2 | 48 nM |  |  | 
3 | B3 | 57 nM |  |  | 
4 | B4 | 35 nM |  |  | 
5 | B5 | 28 nM | no binding (tested: 0.5 mg/ml, 1:100 희석) | no binding (tested: 0.5 mg/ml, 1:100 희석) | no binding (tested: 0.5 mg/ml, 1:100 희석)
6 | B6 | 31 nM |  |  | 
